Reference: the supplement of paper PMC9732359
± gives the uncertainty stated by the source.

Test: protein stability index of a GFP-peptide fusion (yeast GPS) (PSI 1-4); higher = more stable; sorted into four equal gates, so the index is relative within each strain
How it was run: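 Plasmids in a pooled yeast library fused tiled 17-residue yeast protein peptides downstream of GFP and also expressed Cherry. Mid-log cultures grown without leucine were sorted into four equal gates by GFP/Cherry fluorescence ratio. Each gate's plasmids were PCR-amplified and Illumina-sequenced, and reads were matched to strains by barcodes. The protein stability index is derived by multiplying each gate's read frequency by its gate number and summing the results.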

| Sequence | protein stability index (doa10∆) | protein stability index (pdr5∆) | protein stability index (san1∆) | protein stability index (ubr1∆) |
| --- | --- | --- | --- | --- |
| FNVHEVPRAALEERFDP [YMR129W/POM152] | 3.13 ± 0.067 | 3.15 ± 0.078 | 3.16 ± 0.069 | 3.03 ± 0.079 |
| KFDSRIRGILMASGSTT [PRP8] | 2.44 ± 0.084 | 2.18 ± 0.11 | 2.06 ± 0.12 | 2.19 ± 0.13 |
| HPQDFGNPGRIRVLFKE [SEC65] | 2.91 ± 0.077 | 2.94 ± 0.11 | 3.13 ± 0.065 | 3.11 ± 0.061 |
| IEAGRAALYKEVYNVIA [RPO21] | 2.36 ± 0.085 | 1.88 ± 0.096 | 2.41 ± 0.13 | 2.82 ± 0.11 |
| EEERRKKRESGVEEEEE [SNF2] | 3.49 ± 0.079 | 3.35 ± 0.1 | 3.38 ± 0.11 | 3.46 ± 0.047 |
| CFICLLHLANEHGLQIT [BRN1] | 2.54 ± 0.12 | 2.81 ± 0.17 | 2.61 ± 0.17 | 2.87 ± 0.087 |
| RMAKLCARFLGNRGFSI [RPO31] | 2.35 ± 0.2 | – | – | 2.93 ± 0.2 |
| GLNNDFLFQNINFERID [GRR1] | 2.09 ± 0.05 | 2.16 ± 0.057 | 2.19 ± 0.055 | 2.12 ± 0.042 |
| PEYLAMYGLTMEWPKDM [ITC1] | 2.45 ± 0.074 | 2.34 ± 0.11 | 2.23 ± 0.14 | 2.14 ± 0.072 |
| DDNETENPNFWRQFGNR [GRR1] | 3.17 ± 0.076 | 3.23 ± 0.056 | 3.31 ± 0.06 | 3.21 ± 0.056 |
| SILSFVDKELLEPGCSV [RPT2] | 2.75 ± 0.077 | 2.86 ± 0.071 | 2.3 ± 0.078 | 3.01 ± 0.066 |
| TRSALKLVRESELLGGT [QCR2] | 2.51 ± 0.29 | 2.5 ± 0.24 | 2.21 ± 0.16 | – |
| TAEFGKILAGLHDTQIE [RPN10] | 3.23 ± 0.11 | 3.44 ± 0.11 | 3.13 ± 0.14 | 3.02 ± 0.1 |
| KPETPKGPIIISKNPSN [SIR2] | 2.92 ± 0.063 | 3 ± 0.052 | 2.67 ± 0.06 | 2.88 ± 0.046 |
| THIAESAKEIAKASGCD [MCD1] | 3.16 ± 0.14 | 3.4 ± 0.19 | 3.15 ± 0.049 | 3.34 ± 0.075 |
| KSMNKSAINQYNRRQDK [SNF2] | 2.26 ± 0.075 | 2.63 ± 0.082 | 2.44 ± 0.058 | 2.48 ± 0.083 |
| ISDYQQLESIYFRILLP [SWI1] | 2.24 ± 0.045 | 2.33 ± 0.037 | 2.06 ± 0.049 | 2.34 ± 0.065 |
| MQKQHEMKTQAAELQEK [SNF6] | 1.79 ± 0.14 | 3 ± 0.17 | 3.05 ± 0.055 | 2.54 ± 0.063 |
| SQESINQKLALVIKSGK [RPL30] | 2.32 ± 0.097 | 2.65 ± 0.13 | 2.31 ± 0.11 | 2.4 ± 0.058 |
| ERSLAVKYINFGKTVKD [RPC31] | 3.09 ± 0.088 | 3.18 ± 0.1 | 2.99 ± 0.046 | 2.88 ± 0.058 |

| Sequence | protein stability index (doa10∆) | protein stability index (pdr5∆) | protein stability index (san1∆) | protein stability index (ubr1∆) |
| --- | --- | --- | --- | --- |
| PGEYITTIKAIFDGNYG [YMR129W/POM152] | 2.62 ± 0.066 | 2.72 ± 0.071 | 2.77 ± 0.069 | 2.95 ± 0.07 |
| LAKAVAATIGANFIFSP [RPT4] | 2.09 ± 0.048 | 1.99 ± 0.042 | 1.72 ± 0.088 | 2.18 ± 0.069 |
| YENSISKDLRSVWKPIA [IRR1] | 2.58 ± 0.092 | 2.63 ± 0.11 | 2.57 ± 0.064 | 2.54 ± 0.05 |
| LTVDNLSIAIVGKDTPF [PRE5] | 2.9 ± 0.052 | 2.66 ± 0.05 | 2.62 ± 0.05 | 3 ± 0.037 |
| IDQAHVSEITKLKFFPS [RPN14] | 3.12 ± 0.077 | 3.01 ± 0.071 | 3.12 ± 0.054 | 3.28 ± 0.053 |
| LLYYIPSLELSAEYLQM [YJR042W/NUP85] | 1.12 ± 0.09 | 2.03 ± 0.18 | 1.45 ± 0.29 | 1.15 ± 0.12 |
| SITTGNDNENIVNNDLP [MED2] | 2.79 ± 0.051 | 2.78 ± 0.052 | 2.57 ± 0.054 | 2.87 ± 0.05 |
| FLTNYNVRMDTMANILY [RPB2] | 3.58 ± 0.17 | 3.02 ± 0.098 | 3.48 ± 0.1 | 3.48 ± 0.14 |
| RIHRLARYYRTVAVLPP [RPS13] | 1.83 ± 0.088 | 1.8 ± 0.06 | 2.44 ± 0.074 | 2.11 ± 0.046 |
| KVLAAHTKFEVAIGLNG [RRP40] | 2.44 ± 0.088 | 2.56 ± 0.062 | 2.34 ± 0.072 | 2.89 ± 0.057 |
| LKNKKEIYRISFQLSKI [RPS9A] | 3.03 ± 0.12 | 3.09 ± 0.084 | 3.1 ± 0.089 | 3.2 ± 0.058 |
| ARNLYIIAVKGSGSRLN [RPL23A] | 1.27 ± 0.041 | 1.19 ± 0.044 | 1.22 ± 0.088 | 1.35 ± 0.042 |
| SKTGSVDTLHNKEGTLE [SSN2] | 3.46 ± 0.24 | 3.14 ± 0.16 | 3.19 ± 0.083 | 3.4 ± 0.14 |
| IVKGNIIDEIKCIPKKG [POP4] | 1.79 ± 0.05 | 1.9 ± 0.05 | 2.29 ± 0.06 | 2.09 ± 0.045 |
| DAFNMLSLTTVPCDRIE [SNF6] | 2.18 ± 0.05 | 2.57 ± 0.064 | 2.43 ± 0.091 | 2.4 ± 0.069 |
| IYSSDAQGDPNLEPLIA [NUT1] | 3.36 ± 0.14 | 3.12 ± 0.096 | 3.04 ± 0.065 | 3.35 ± 0.1 |
| SVPLMINAKNIAFASNY [RRP43] | 1.57 ± 0.06 | 1.53 ± 0.051 | 1.27 ± 0.14 | 1.41 ± 0.052 |
| NSSEQESDYEPNNETSV [SIR3] | 3.11 ± 0.084 | 3.27 ± 0.085 | 3.02 ± 0.063 | 2.84 ± 0.092 |
| LPLLILENSSRSPRVVT [NUT1] | 1.76 ± 0.054 | 2 ± 0.046 | 2.258 ± 0.015 | 1.94 ± 0.039 |
